Among the data in US20210130437A1 are MFI values, retold here.

The target of the assay is human PD-1 and human TIGIT co-expressed on Jurkat cells (Jurkat/PD-1/TIGIT cells) (human). Put plainly: flow cytometry, Jurkat/PD-1/TIGIT cells.
Chain of human PD-1 and human TIGIT co-expressed on Jurkat cells (Jurkat/PD-1/TIGIT cells) (human) (chain, as listed by the source, chain 1 of 2): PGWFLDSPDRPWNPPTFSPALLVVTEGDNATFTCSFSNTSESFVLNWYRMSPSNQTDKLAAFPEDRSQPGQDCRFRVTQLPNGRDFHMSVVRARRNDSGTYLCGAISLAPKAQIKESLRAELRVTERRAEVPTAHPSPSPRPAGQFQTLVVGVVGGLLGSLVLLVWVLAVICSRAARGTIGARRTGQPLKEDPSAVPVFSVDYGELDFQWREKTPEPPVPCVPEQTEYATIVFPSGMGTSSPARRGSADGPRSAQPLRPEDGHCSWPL
Chain of human PD-1 and human TIGIT co-expressed on Jurkat cells (Jurkat/PD-1/TIGIT cells) (human) (chain, as listed by the source, chain 2 of 2): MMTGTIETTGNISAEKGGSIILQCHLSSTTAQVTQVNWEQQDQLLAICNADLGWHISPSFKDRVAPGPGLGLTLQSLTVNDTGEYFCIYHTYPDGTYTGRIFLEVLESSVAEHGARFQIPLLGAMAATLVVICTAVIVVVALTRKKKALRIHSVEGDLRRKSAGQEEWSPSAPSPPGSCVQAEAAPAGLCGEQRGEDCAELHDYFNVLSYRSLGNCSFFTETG

B1: variant CD155 IgV-Fc P18S/S65W/S67A/L104Q/G111R (Fc fusion)
chain: WPPPGTGDVVVQAPTQVSGFLGDSVTLPCYLQVPNMEVTHVSQLTWARHGESGSMAVFHQTQGPWYAESKRLEFVAARLGAELRNASLRMFGLRVEDEGNYTCQFVTFPQRSRSVDIWLRVLAAAEPKSSDKTHTCPPCPAPELLGGPSVFLFPPKPKDTLMISRTPEVTCVVVDVSHEDPEVKFNWYVDGVEVHNAKTKPCEEQYGSTYRCVSVLTVLHQDWLNGKEYKCKVSNKALPAPIEKTISKAKGQPREPQVYTLPPSREEMTKNQVSLTCLVKGFYPSDIAVEWESNGQPENNYKTTPPVLDSDGSFFLYSKLTVDKSRWQQGNVFSCSVMHEALHNHYTQKSLSLSPGK
In the case of B1, the MFI at 6.25 nM is 4890 MFI.
